The assay concerns the target HLA-A2 molecule (a product of the HLA-A*0201 gene) (human), A*02:0.

In the case of YLEENPSAG (modifications not checked) [SEQ ID NO: 26 peptide], the -log Kd (Binding Experiment Data) is 4.9 -log Kd.

On to IFLARSALI (modifications not checked) [SEQ ID NO: 35 peptide], for which the -log Kd (Binding Experiment Data) was 5.94 -log Kd.

With WMACHSAAF (modifications not checked) [SEQ ID NO: 30 peptide], the -log Kd (Binding Experiment Data) was 5.79 -log Kd.

Consider YLEEHPSAG (modifications not checked) [SEQ ID NO: 21 peptide], for which the -log Kd (Binding Experiment Data) was 5.08 -log Kd.

These data come from patent US20090023895A1.
